In this assay the target is OVA peptide 323-339 presented on MHC-II molecules (Gallus gallus (Chicken)) (UniProt P01012).

“T cell receptor of OT-II CD4+ T cells, specific for ovalbumin (OVA) peptide presented in the context of MHC-II molecules (TCR)” registered a proliferation (CTVlow) of OT-II CD4+ T cells after 5 days of co-culture with peptide-loaded PIP-induced cells of 10.7%.

Values taken from US20240139239A1.
